Molecular target: plasma proteins (fresh human plasma)
Assay: size exclusion chromatography (Sephadex G-50 spin columns) with gamma counting, after incubation in fresh human plasma at 37 C for up to 4 h

99mTc-HYNIC-P8RI (obtained with tricine/EDDA as coligands) (peptide)
protein binding (% bound to plasma proteins): < 5%

— US20190092858A1
